B1: Spindle pole body assembly component MPS3 (Saccharomyces cerevisiae), P47069 (parent)
chain: MNNSNEHRREEAGAANEQMPYNKAVKSAYADVLKDKMNREQEISLRAIKKGIYTDGGETDNYDMDKENDSAYEMFKKNLDFPLDQHNDDDDDDPYIEDNGQETDGYSDEDYTDEADKSFIEDSDSDSYDLESNSDFEENLESSGEAKKLKWRTYIFYGGLFFVFYFFGSFLMTTVKNNDLESHSSGATSSPGKSFSNLQKQVNHLYSELSKRDEKHSSELDKTVKIIVSQFEKNIKRLLPSNLVNFENDINSLTKQVETISTSMSELQRRNHKFTVENVTQWQDQLVKQLDTHLPQEIPVVINNSSSLLIIPELHNYLSALISDVIESPGIGTAGSAESRWEYDLNRYVKEILSNELQYIDKDYFIQEMNRRLQSNKQEIWEEITNRLETQQQQQQQQVQQDYSNVPQQYSSILMKRLIHQIYNSNQHQWEDDLDFATYVQGTKLLNHLTSPTWRQGSGVQPIELLTDSKQSSSTYWQCENEPGCSWAIRFKTPLYLTKISYMHGRFTNNLHIMNSAPRLISLYVKLSQTKEIKALQTLANQYGFGQHHKRDRNYIKIAKFEYRLTDSRIRQQMYLPPWFIQLKPLVRSIVFQVDENYGNKKFISLRKFIINGVTPQDLQIIENNEFPVLLGDTPEYGVTQNTDEGKRKVLLSKPPYASSSTSTKFHPASNVPSFGQDELDQ
partner: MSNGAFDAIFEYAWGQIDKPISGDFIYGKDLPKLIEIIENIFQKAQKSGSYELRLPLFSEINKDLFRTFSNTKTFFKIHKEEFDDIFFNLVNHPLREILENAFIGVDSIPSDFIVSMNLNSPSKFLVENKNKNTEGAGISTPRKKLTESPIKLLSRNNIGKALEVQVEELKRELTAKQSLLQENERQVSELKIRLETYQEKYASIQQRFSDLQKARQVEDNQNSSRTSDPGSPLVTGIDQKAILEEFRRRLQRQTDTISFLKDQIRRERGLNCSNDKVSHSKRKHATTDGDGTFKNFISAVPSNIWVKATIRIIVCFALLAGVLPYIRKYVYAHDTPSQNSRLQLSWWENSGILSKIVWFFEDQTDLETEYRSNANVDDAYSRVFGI

Variants of: B1
Conditions: with mps2_yeast MPS2, P53159

Effect of a mutation on the interaction, decreasing interaction:
W477A
W487A
Q572L;Q573L

Reference: IntAct's records for PubMed 16923827
